# Paper PMC7367873, “Dissecting the sequence determinants for dephosphorylation by the catalytic subunits of phosphatases PP1 and PP2A” (Nature Communications, 2020)
# B1: SIPA1 (protein, UniProt Q96FS4 1-1042, looked up)
# Signal-induced …: MPMWAGGVGSPRRGMAPASTDDLFARKLRQPARPPLTPHTFEPRPVRGPLLRSGSDAGEARPPTPASPRARAHSHEEASRPAATSTRLFTDPLALLGLPAEEPEPAFPPVLEPRWFAHYDVQSLLFDWAPRSQGMGSHSEASSGTLASAEDQAASSDLLHGAPGFVCELGGEGELGLGGPASPPVPPALPNAAVSILEEPQNRTSAYSLEHADLGAGYYRKYFYGKEHQNFFGMDESLGPVAVSLRREEKEGSGGGTLHSYRVIVRTTQLRTLRGTISEDALPPGPPRGLSPRKLLEHVAPQLSPSCLRLGSASPKVPRTLLTLDEQVLSFQRKVGILYCRAGQGSEEEMYNNQEAGPAFMQFLTLLGDVVRLKGFESYRAQLDTKTDSTGTHSLYTTYQDHEIMFHVSTMLPYTPNNQQQLLRKRHIGNDIVTIVFQEPGSKPFCPTTIRSHFQHVFLVVRAHTPCTPHTTYRVAVSRTQDTPAFGPALPAGGGPFAANADFRAFLLAKALNGEQAAGHARQFHAMATRTRQQYLQDLATNEVTTTSLDSASRFGLPSLGGRRRAAPRGPGAELQAAGSLVWGVRAAPGARVAAGAQASGPEGIEVPCLLGISAEALVLVAPRDGRVVFNCACRDVLAWTFSEQQLDLYHGRGEAITLRFDGSPGQAVGEVVARLQLVSRGCETRELALPRDGQGRLGFEVDAEGFVTHVERFTFAETAGLRPGARLLRVCGQTLPSLRPEAAAQLLRSAPKVCVTVLPPDESGRPRRSFSELYTLSLQEPSRRGAPDPVQDEVQGVTLLPTTKQLLHLCLQDGGSPPGPGDLAEERTEFLHSQNSLSPRSSLSDEAPVLPNTTPDLLLATTAKPSVPSADSETPLTQDRPGSPSGSEDKGNPAPELRASFLPRTLSLRNSISRIMSEAGSGTLEDEWQAISEIASTCNTILESLSREGQPIPESGDPKGTPKSDAEPEPGNLSEKVSHLESMLRKLQEDLQKEKADRAALEEEVRSLRHNNRRLQAESESAATRLLLASKQLGSPTADLA
# B2: NXF1 (protein, UniProt Q9UBU9 2-619, looked up)
# Nuclear RNA export factor 1: ADEGKSYSEHDDERVNFPQRKKKGRGPFRWKYGEGNRRSGRGGSGIRSSRLEEDDGDVAMSDAQDGPRVRYNPYTTRPNRRGDTWHDRDRIHVTVRRDRAPPERGGAGTSQDGTSKNWFKITIPYGRKYDKAWLLSMIQSKCSVPFTPIEFHYENTRAQFFVEDASTASALKAVNYKILDRENRRISIIINSSAPPHTILNELKPEQVEQLKLIMSKRYDGSQQALDLKGLRSDPDLVAQNIDVVLNRRSCMAATLRIIEENIPELLSLNLSNNRLYRLDDMSSIVQKAPNLKILNLSGNELKSERELDKIKGLKLEELWLDGNSLCDTFRDQSTYISAIRERFPKLLRLDGHELPPPIAFDVEAPTTLPPCKGSYFGTENLKSLVLHFLQQYYAIYDSGDRQGLLDAYHDGACCSLSIPFIPQNPARSSLAEYFKDSRNVKKLKDPTLRFRLLKHTRLNVVAFLNELPKTQHDVNSFVVDISAQTSTLLCFSVNGVFKEVDGKSRDSLRAFTRTFIAVPASNSGLCIVNDELFVRNASSEEIQRAFAMPAPTPSSSPVPTLSPEQQEMLQAFSTQSGMNLEWSQKCLQDNNWDYTRSAQAFTHLKAKGEIPEVAFMK
# B3: HDAC7 (protein, UniProt Q8WUI4 1-952, looked up)
# Histone deacetylase 7: MDLRVGQRPPVEPPPEPTLLALQRPQRLHHHLFLAGLQQQRSVEPMRLSMDTPMPELQVGPQEQELRQLLHKDKSKRSAVASSVVKQKLAEVILKKQQAALERTVHPNSPGIPYRTLEPLETEGATRSMLSSFLPPVPSLPSDPPEHFPLRKTVSEPNLKLRYKPKKSLERRKNPLLRKESAPPSLRRRPAETLGDSSPSSSSTPASGCSSPNDSEHGPNPILGSEALLGQRLRLQETSVAPFALPTVSLLPAITLGLPAPARADSDRRTHPTLGPRGPILGSPHTPLFLPHGLEPEAGGTLPSRLQPILLLDPSGSHAPLLTVPGLGPLPFHFAQSLMTTERLSGSGLHWPLSRTRSEPLPPSATAPPPPGPMQPRLEQLKTHVQVIKRSAKPSEKPRLRQIPSAEDLETDGGGPGQVVDDGLEHRELGHGQPEARGPAPLQQHPQVLLWEQQRLAGRLPRGSTGDTVLLPLAQGGHRPLSRAQSSPAAPASLSAPEPASQARVLSSSETPARTLPFTTGLIYDSVMLKHQCSCGDNSRHPEHAGRIQSIWSRLQERGLRSQCECLRGRKASLEELQSVHSERHVLLYGTNPLSRLKLDNGKLAGLLAQRMFVMLPCGGVGVDTDTIWNELHSSNAARWAAGSVTDLAFKVASRELKNGFAVVRPPGHHADHSTAMGFCFFNSVAIACRQLQQQSKASKILIVDWDVHHGNGTQQTFYQDPSVLYISLHRHDDGNFFPGSGAVDEVGAGSGEGFNVNVAWAGGLDPPMGDPEYLAAFRIVVMPIAREFSPDLVLVSAGFDAAEGHPAPLGGYHVSAKCFGYMTQQLMNLAGGAVVLALEGGHDLTAICDASEACVAALLGNRVDPLSEEGWKQKPNLNAIRSLEAVIRVHSKYWGCMQRLASCPDSWVPRVPGADKEEVEAVTALASLSVGILAEDRPSEQLVEEEEPMNL
# B4: SRSF10 (protein, UniProt O75494 1-262, looked up)
# Serine/arginine-rich splicing …: MSRYLRPPNTSLFVRNVADDTRSEDLRREFGRYGPIVDVYVPLDFYTRRPRGFAYVQFEDVRDAEDALHNLDRKWICGRQIEIQFAQGDRKTPNQMKAKEGRNVYSSSRYDDYDRYRRSRSRSYERRRSRSRSFDYNYRRSYSPRNSRPTGRPRRSRSHSDNDRFKHRNRSFSRSKSNSRSRSKSQPKKEMKAKSRSRSASHTKTRGTSKTDSKTHYKSGSRYEKESRKKEPPRSKSQSRSQSRSRSKSRSRSWTSPKSSGH
# B5: TFEB (protein, UniProt P19484 1-476, looked up)
# Transcription factor EB: MASRIGLRMQLMREQAQQEEQRERMQQQAVMHYMQQQQQQQQQQLGGPPTPAINTPVHFQSPPPVPGEVLKVQSYLENPTSYHLQQSQHQKVREYLSETYGNKFAAHISPAQGSPKPPPAASPGVRAGHVLSSSAGNSAPNSPMAMLHIGSNPERELDDVIDNIMRLDDVLGYINPEMQMPNTLPLSSSHLNVYSSDPQVTASLVGVTSSSCPADLTQKRELTDAESRALAKERQKKDNHNLIERRRRFNINDRIKELGMLIPKANDLDVRWNKGTILKASVDYIRRMQKDLQKSRELENHSRRLEMTNKQLWLRIQELEMQARVHGLPTTSPSGMNMAELAQQVVKQELPSEEGPGEALMLGAEVPDPEPLPALPPQAPLPLPTQPPSPFHHLDFSHSLSFGGREDEGPPGYPEPLAPGHGSPFPSLSKKDLDLMLLDDSLLPLASDPLLSTMSPEASKASSRRSSFSMEEGDVL
# B6: TFE3 (protein, UniProt P19532 1-575, looked up)
# Transcription factor E3: MSHAAEPARDGVEASAEGPRAVFVLLEERRPADSAQLLSLNSLLPESGIVADIELENVLDPDSFYELKSQPLPLRSSLPISLQATPATPATLSASSSAGGSRTPAMSSSSSSRVLLRQQLMRAQAQEQERRERREQAAAAPFPSPAPASPAISVVGVSAGGHTLSRPPPAQVPREVLKVQTHLENPTRYHLQQARRQQVKQYLSTTLGPKLASQALTPPPGPASAQPLPAPEAAHTTGPTGSAPNSPMALLTIGSSSEKEIDDVIDEIISLESSYNDEMLSYLPGGTTGLQLPSTLPVSGNLLDVYSSQGVATPAITVSNSCPAELPNIKREISETEAKALLKERQKKDNHNLIERRRRFNINDRIKELGTLIPKSSDPEMRWNKGTILKASVDYIRKLQKEQQRSKDLESRQRSLEQANRSLQLRIQELELQAQIHGLPVPPTPGLLSLATTSASDSLKPEQLDIEEEGRPGAATFHVGGGPAQNAPHQQPPAPPSDALLDLHFPSDHLGDLGDPFHLGLEDILMEEEEGVVGGLSGGALSPLRAASDPLLSSVSPAVSKASSRRSSFSMEEES
# B7: THRAP3 (protein, UniProt Q9Y2W1 2-955, looked up)
# Thyroid hormone …: SKTNKSKSGSRSSRSRSASRSRSRSFSKSRSRSRSLSRSRKRRLSSRSRSRSYSPAHNRERNHPRVYQNRDFRGHNRGYRRPYYFRGRNRGFYPWGQYNRGGYGNYRSNWQNYRQAYSPRRGRSRSRSPKRRSPSPRSRSHSRNSDKSSSDRSRRSSSSRSSSNHSRVESSKRKSAKEKKSSSKDSRPSQAAGDNQGDEAKEQTFSGGTSQDTKASESSKPWPDATYGTGSASRASAVSELSPRERSPALKSPLQSVVVRRRSPRPSPVPKPSPPLSSTSQMGSTLPSGAGYQSGTHQGQFDHGSGSLSPSKKSPVGKSPPSTGSTYGSSQKEESAASGGAAYTKRYLEEQKTENGKDKEQKQTNTDKEKIKEKGSFSDTGLGDGKMKSDSFAPKTDSEKPFRGSQSPKRYKLRDDFEKKMADFHKEEMDDQDKDKAKGRKESEFDDEPKFMSKVIGANKNQEEEKSGKWEGLVYAPPGKEKQRKTEELEEESFPERSKKEDRGKRSEGGHRGFVPEKNFRVTAYKAVQEKSSSPPPRKTSESRDKLGAKGDFPTGKSSFSITREAQVNVRMDSFDEDLARPSGLLAQERKLCRDLVHSNKKEQEFRSIFQHIQSAQSQRSPSELFAQHIVTIVHHVKEHHFGSSGMTLHERFTKYLKRGTEQEAAKNKKSPEIHRRIDISPSTFRKHGLAHDEMKSPREPGYKAEGKYKDDPVDLRLDIERRKKHKERDLKRGKSRESVDSRDSSHSRERSAEKTEKTHKGSKKQKKHRRARDRSRSSSSSSQSSHSYKAEEYTEETEEREESTTGFDKSRLGTKDFVGPSERGGGRARGTFQFRARGRGWGRGNYSGNNNNNSNNDFQKRNREEEWDPEYTPKSKKYYLHDDREGEGSDKWVSRGRGRGAFPRGRGRFMFRKSSTSPKWAHDKFSGEEGEIEDDESGTENREEKDNIQPTTE
# What was measured:
# [1] = test system: GFP-14-3-3β and its binding proteins; assay: GFP-14-3-3β co-IP with LC-MS/MS label-free quantification, untreated versus PP1c-treated; set-up: species or system human; conditions: pairwise comparison PP1 vs untreated, 3 replicates each
# [2] = test system: GFP-14-3-3β; assay: GFP-14-3-3β co-IP with LC-MS/MS, untreated GFP-14-3-3β versus GFP control (14-3-3 interactome); type: binding, human; conditions: 3 replicates each
# [3] = student's t-test, LC-MS/MS label-free quantification
# [4] = pairwise comparison untreated GFP-14-3-3β vs GFP, student's t-test, LC-MS/MS label-free quantification
Molecule,"Difference (log2), PP1 vs untreated [1, 3]","Difference (log2), untreated vs GFP [2, 4]","Difference (log2), PP1 vs untreated ([1]; log2 difference, label-free quantification)","Difference (log2), untreated vs GFP ([2]; log2 difference, pairwise comparison untreated vs GFP, label-free quantification)"
B1,-2.506 log2,4.698 log2,–,–
B2,–,–,1.555,3.395
B3,-2.551 log2,7.896 log2,–,–
B4,-2.973 log2,3.797 log2,–,–
B5,-2.76 log2,5.784 log2,–,–
B6,-2.839 log2,3.895 log2,–,–
B7,-2.776 log2,4.049 log2,–,–
